Patent publication US9976167B2, “Group of glycosyltransferases and use thereof” (Shanghai Institutes For Biological Sciences, Chinese …, priority 2012, dated 2018)

B1: 3GT1: glycosyltransferase protein with 495 amino acids, SEQ ID NO.: 22; homology with UGT73C10 of Barbarea vulgaris higher than 99% (protein, listed as Barbarea vulgaris)
chain: MVSEITHKSYPLHFVLFPFMAQGHMIPMVDIARLLAQRGVKITIVTTPHNAARFENVLSRAIESGLPISIVQVKLPSQEAGLPEGNETFDSLVSTKLLVPFFKAVNMLEEPVQKLFEEMSPQPSCIISDFCLPYTSKIAKKFNIPKILFHGMCCFCLLCMHVLRKNREILENLKSDKEHFVVPYFPDRVEFTRPQVPLATYVPGEWHEIKEDMVEADKTSYGVIVNTYQELEPAYANGYKEARSGKAWTIGPVSLCNKVGADKAERGNKADIDQDECLKWLDSKEEGSVLYVCLGSICSLPLSQLKELGLGLEESQRPFIWVVRGWEKNKELLEWFSESGFEERVKDRGLLIKGWSPQMLILAHHSVGGFLTHCGWNSTLEGITSGVPLLTWPLFGDQFCNQKLVVQVLKVGVSAGVEEVTNWGEEEKIGVLVDKEGVKKAVEELMGESDDAKEIRKRVKELGQLAHKAVEEGGSSHSNITSLLEDIMQLAQPNN
modifications: 3GT1
B2: 3GT2: glycosyltransferase protein with 495 amino acids, SEQ ID NO.: 24; homology with UGT73C12 of Barbarea vulgaris higher than 99% (protein, listed as Barbarea vulgaris)
chain: MVSEITHKSYPLHFVLFPFMAQGHMIPMVDIARLLAQRGVKITIVTTPHNAARFKNVLSRAIESGLPISIVQVKLPSQEAGLPEGNETLDSLVSMELMIHFLKAVNMLEEPVQKLFEEMSPQPSCIISDFCLPYTSKIAKKFNIPKILFHGMCCFCLLCMHILRKNREIVENLKSDKEHFVVPYFPDRVEFTRPQVPVATYVPGDWHEITEDMVEADKTSYGVIVNTYQELEPAYANDYKEARSGKAWTIGPVSLCNKVGADKAERGNKADIDQDECLKWLNSKEEGSVLYVCLGSICNLPLSQLKELGLGLEESQRPFIWVIRGWEKNKELHEWFSESGFEERIKDRGLLIKGWAPQMLILSHHSVGGFLTHCGWNSTLEGLTAGLPLLTWPLFADQFCNEKLAVQVLKAGVSAGVDQPMKWGEEEKIGVLVDKEGVKKAVEELMGESDDAKEIRRRAKELGELAHKAVEEGGSSHSNITSLLEDIMQLAQSNN
modifications: 3GT2
B3: gGT13: glycosyltransferase protein with 476 amino acids, SEQ ID NO.: 4 (protein)
chain: MGAELILIPSPGVGHLVSTVEIAKLLISRDERLSITVLVMKFSHDTGVTAYTRSLQKDAPNRIVFVDLPQNESLISSPKSFFTSFIESQTSPVRDSVRQIVSRSDSNKLAGFVIDMFCTPMIDVANEFGVPTYVFFTSGAAFLGLQFYHLSLSDEHNQDLTEYKDTDVELSIPSFINPVPAKVLPSVILNKEGSTMLQSISRRFKEAKAILVNTFAELEPHAIKALGDNCKIPPIYPVGPIINLKNKEGTTQNHSSEDGIISWLDNQPPSSVVFLCFGSFGSFDEGQVREIANGLEQSGQRFLWSLRRRPEKMELPKDYENPEEVLPEGFIERTSGMGKVIGWAPQTAILSHPAVGGFVSHCGWNSTLESIWCGVPMATWPIYAEQQINAFELVKELGMAVEIKMDYREDYIFAPENNLVVTADQIEKGMRCLMMDGESEMRKKVEEMKEKSRMAMVKGGSSYISLGHFIEDVMRN
modifications: Panax ginseng; gGT13

Assays:
prostate cancer cells = settings: cited from earlier work
osteoclasts = settings: cited from earlier work
[1] = Glycosyltransfering reaction with crude enzyme, substrate PPT; format: biochemical; settings: for glycosylation of C3-OH of PPT (product 3-O-β-(D-glucopyranosyl)-PPT): crude enzyme of Example 11, 35° C., 12 hrs, TLC
Protocol: (§1) The lysate supernatant of the recombinant yeasts expressing the empty vector was used as control.
(§2) The reaction was conducted under 35° C. for 12 hrs, then stopped by adding 100 μL of butanol. The product were extracted, dried in vacuum, and dissolved in methanol.
(§3) The reaction products were first detected by thin layer chromatography (TLC).
(§4) The converted products of gGT25 were further identified by HPLC (FIG. 10 and FIG. 11). The retention time of peak 2 was identical to that of the CK standard sample; the retention time of peak 3 was identical to that of PPD. […] Peak 1, also present in the profile of the negative control, indicated its irrelevance to the conversion of PPD. 3 peaks were shown in FIG. 11, the retention time of peak 1 was identical to that of F1 standard sample and peak 3 was identical to that of PPT. […] Peak 2, also present in the profile of the negative control, indicated its irrelevance to the conversion of PPT.
(§5) According to the method as in Example 4, the cell lysate of recombinant yeasts expressing gGT13 and gGT30 were used to catalyze PPD and PPT.
(§6) The glycosyltransfering reactions of ginsenosides and ginsengenins were catalyzed by using the lysis supernatant of the recombinant yeasts expressing 3GT1, 3GT2, 3GT3 and 3GT4 as crude enzymes. The lysis supernatant of recombinant E. coli expressing empty vectors was used as control. The 100 μL reaction system is shown as Table 3. The reaction was conducted under 35° C. for 12 hrs, then stopped by adding 100 μL of butanol. The product were extracted, dried in vacuum, and dissolved in methanol.

[2] = Glycosyltransfering reaction with crude enzyme, substrate 20(R)-PPD; format: biochemical; settings: 35° C., 12 hrs, TLC; for catalysis of 20(R)-PPD (product 20(R)-ginsenoside Rh2): crude enzyme of Example 11; for substrate that could be catalyzed: 20(R)-PPD: crude enzyme: lysate supernatant of recombinant E. coli, UDP-glucose
[3] = Glycosyltransfering reaction with crude enzyme, substrate lanosterol; format: biochemical; settings: 35° C., 12 hrs, TLC; for glycosylation of C3-OH of lanosterol (product 3-O-β-(D-glucopyranosyl)-lanosterol): crude enzyme of Example 11; for substrate that could be catalyzed: lanosterol: crude enzyme: lysate supernatant of recombinant E. coli, UDP-glucose
Protocol: as §6

[4] = Glycosyltransfering reaction with crude enzyme, substrate DM; format: biochemical; settings: 35° C., 12 hrs, TLC; for glycosylation of C3-OH of DM (product 3-O-β-(D-glucopyranosyl)-Dammarenediol II): crude enzyme of Example 11; for substrate that could be catalyzed: DM: crude enzyme: lysate supernatant of recombinant E. coli, UDP-glucose
Protocol: as §1, §2, §3, §6

[5] = Glycosyltransfering reaction with crude enzyme, substrate F1; format: biochemical; settings: for glycosylation of C3-OH of F1 (product 3-O-β-(D-glucopyranosyl)-F1): crude enzyme of Example 11; for glycosylation of C3-OH of F1 (product 3-O-β-(D-glucopyranosyl)-F1) / substrate that could be catalyzed: F1: 35° C., 12 hrs, TLC; for substrate that could be catalyzed: F1: crude enzyme: lysate supernatant of recombinant E. coli, UDP-glucose
Protocol: as §5
The lysis supernatant of recombinant E. coli expressing empty vectors was used as control. The 100 μL reaction system is shown as Table 3. The reaction was conducted under 35° C. for 12 hrs, then stopped by adding 100 μL of butanol. The product were extracted, dried in vacuum, and dissolved in methanol.

[6] = Glycosyltransfering reaction with crude enzyme, substrate 25-OH-PPD; format: biochemical; settings: 35° C., 12 hrs, TLC; for glycosylation of C3-OH of 25-OH-PPD (product 3-O-β-(D-glucopyranosyl)-25-OH-PPD): crude enzyme of Example 11; for substrate that could be catalyzed: 25-OH-PPD: crude enzyme: lysate supernatant of recombinant E. coli, UDP-glucose
Protocol: as §6

[7] = Glycosyltransfering activities on ginsengenins and saponins: glycosylation site and specificity (summary); format: biochemical; settings: for effect of the steric configuration of the hydroxyl or glycosyl at C20 on catalytic activity: 20(S)-type versus 20(R)-type substrates; for glycosylation site: C-3: Table 2, tetracyclic triterpenoid substrates; for substrate spectrum / specificity: comparison of 3GT1, 3GT2, 3GT3 and 3GT4, Table 6
In short: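 Crude enzymes were lysate supernatants of recombinant yeast expressing 3GT1, 3GT2, 3GT3 or 3GT4, with empty-vector lysate as control. Reactions ran at 35° C for 12 hrs and were stopped with butanol; products were extracted, dried in vacuum and dissolved in methanol.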

[8] = Glycosyltransfering reaction with crude enzyme, substrate PPT; format: biochemical; settings: crude enzyme: lysate supernatant of recombinant E. coli; UDP-glucose, 35° C., 12 hrs; TLC
[9] = Glycosyltransfering reaction with crude enzyme, substrate CK; format: biochemical; settings: for glycosylation of C3-OH of CK (product F2): crude enzyme of Example 11; for glycosylation of C3-OH of CK (product F2) / substrate that could be catalyzed: CK: 35° C., 12 hrs, TLC; for substrate that could be catalyzed: CK: crude enzyme: lysate supernatant of recombinant E. coli, UDP-glucose
Protocol: as §5, §6

[10] = Glycosyltransfering reaction with crude enzyme, substrate PPD; format: biochemical; settings: for substrate that could be catalyzed: PPD: crude enzyme: lysate supernatant of recombinant E. coli, UDP-glucose, 35° C., 12 hrs, TLC
Protocol: as §1, §2, §3, §4, §5
The cell lysis supernatant of the recombinant E. coli was used as crude enzyme to conduct the glycosyltransfering reaction, and the reaction condition was identical to that of Example 4.
The reaction was conducted under 35° C. for 12 hrs. 100 μL of butanol was added to stop the reaction and the products were extracted. Upon vacuum drying, the product was dissolved by methanol. TLC was first used to detect the reaction product.
as §6
The reaction was conducted under 35° C. for 12 hrs, and then stopped by adding 100 μL of butanol. The product were extracted, dried in vacuum, and dissolved in methanol. The reaction products were first detected by thin layer chromatography (TLC) (FIG. 35).

[11] = Glycosyltransfering reaction with crude enzyme, substrate F2; format: biochemical; settings: cell lysate of recombinant yeasts, method of Example 4
Protocol: as §5
The lysate supernatant of the recombinant yeast expressing empty vectors was used as control. The reaction was conducted under 35° C. for 12 hrs, and then stopped by adding 100 μL of butanol. The product were extracted, dried in vacuum, and dissolved in methanol.
The glycosyltransfering reactions of ginsenosides Rh2 and F2 were catalyzed by using the lysate supernatant of the recombinant yeasts expressing 3GT1, 3GT2, 3GT3 and 3GT4 as crude enzymes. The 100 μL reaction system is shown as Table 3. The reaction was conducted under 35° C. for 12 hrs, and then stopped by adding 100 μL of butanol. The product were extracted, dried in vacuum, and dissolved in methanol.

[12] = Glycosyltransfering reaction with crude enzyme, substrate Rg3; format: biochemical; settings: cell lysate of recombinant yeasts, method of Example 4
Protocol: as §1, §2
(§7) The reaction products were first detected by thin layer chromatography (TLC). […]

[13] = Glycosyltransfering reaction with crude enzyme, substrate Rg1; format: biochemical; settings: cell lysate of recombinant yeasts, method of Example 4
[14] = Glycosyltransfering reaction with crude enzyme, substrate Rh1; format: biochemical; settings: cell lysate of recombinant yeasts, method of Example 4
Protocol: as §1, §2, §7

[15] = Glycosyltransfering reaction with crude enzyme, substrate Rh2; format: biochemical; settings: cell lysate of recombinant yeasts, method of Example 4
[16] = cell lysate of recombinant yeasts, method of Example 4

Molecule	glycosylation of C3-OH of PPT (product 3-O-β-(D-glucopyranosyl)-PPT) [1]	catalysis of 20(R)-PPD (product 20(R)-ginsenoside Rh2) [2]	substrate that could be catalyzed: 20(R)-PPD [2]	glycosylation of C3-OH of lanosterol (product 3-O-β-(D-glucopyranosyl)-lanosterol) [3]	substrate that could be catalyzed: lanosterol [3]	glycosylation of C3-OH of DM (product 3-O-β-(D-glucopyranosyl)-Dammarenediol II) [4]	substrate that could be catalyzed: DM [4]	glycosylation of C3-OH of F1 (product 3-O-β-(D-glucopyranosyl)-F1) [5]	substrate that could be catalyzed: F1 [5]	glycosylation of C3-OH of 25-OH-PPD (product 3-O-β-(D-glucopyranosyl)-25-OH-PPD) [6]	substrate that could be catalyzed: 25-OH-PPD [6]	effect of the steric configuration of the hydroxyl or glycosyl at C20 on catalytic activity [7]	glycosylation site: C-3 [7]	substrate spectrum / specificity [7]	substrate that could be catalyzed: PPT [8]	glycosylation of C3-OH of CK (product F2) [9]	substrate that could be catalyzed: CK [9]	substrate that could be catalyzed: PPD [10]	also measured
CC(C)=CCC[C@@](C)(O)[C@H]1CC[C@]2(C)[C@@H]1[C@H](O)C[C@@H]1[C@@]3(C)CC[C@H](O[C@@H]4O[C@H](CO)[C@@H](O)[C@H](O)[C@H]4O)C(C)(C)[C@@H]3CC[C@]12C [R-type ginsenoside Rh2, 3-O-β-(D-glucopyranosyl)-20(R)-protopanaxadiol]	–	–	–	–	–	–	–	–	–	–	–	–	–	–	–	–	–	–	inhibition of prostate cancer cells (prostate cancer cells): quite poor; cytotoxicity to osteoclasts (osteoclasts): without any cytotoxicity; inhibition of the generation of osteoclasts (osteoclasts): selectively inhibit
B1	could be glycosylated	could catalyze	✓	could be glycosylated	✓	could be glycosylated	✓	could be glycosylated	✓	could be glycosylated	✓	not affected	✓	most number of substrates	✓	further glycosylating its C3-OH	✓	✓	–
B2	could be glycosylated	could catalyze	✓	could be glycosylated	✓	could be glycosylated	✓	could be glycosylated	✓	could be glycosylated	✓	not affected	✓	most number of substrates	✓	further glycosylating its C3-OH	✓	✓	–
B3	–	–	–	–	–	–	–	–	–	–	–	–	–	–	–	–	–	–	conversion of F2 [11]: neither converted; conversion of PPT [1, 16]: neither converted; conversion of Rg3 [12]: neither converted; conversion of Rg1 [13]: neither converted; conversion of Rh1 [14]: neither converted; conversion of F1 [5, 16]: neither converted; conversion of Rh2 [15]: neither converted; conversion of CK [9, 16]: neither converted; conversion of PPD [10, 16]: neither converted
